Positions count from the first letter of the chain named.
B1: H4H1742P (antibody, human IgG4 S228P, V domains shown)
VH: EVQLVESGGGLVQPGGSLRLSCAASGFTFSNYVMNWVRQAPGKGLEWVSVISGSGGSTHYADSVKGRFTISRDNSKDALYLQMNSLRAEDTAVYYCAKGPLEAYYYYNGMDVWGQGTTVTVSS
VL: DIQLTQSPSFLSASVGDRVTITCWASQAISSYLAWYQHKPGRAPKLLIYSTSTLQSGVPSRFSGSGSGTEFTLTISSLQPEDFATYYCQQLNSYPTFGQGTKLEIK
B2: H4H1745P (antibody, human IgG4 S228P, V domains shown)
VH: EVQLVESGGGLVQPGGSLRLSCAASGFTFSSYAMTWVRQAPGKGLEWVSGVSGRGGSTYYADSVKGRFTISRDNSKNTLYLQMNSLRAEDTAVYYCAYWDISSFDYWGQGTLVTVSS
VL: DIQLTQSPSFLSASVGDRVTITCWASQGISTYLAWYQQKPGKTPKLLIYAASTLQSGVPSRFSGSGSGTDFTLTISSLQPEDFATYYCQQFNSYPLTFGGGTKVEIK
B3: H4H1750P (antibody, human IgG4 S228P, V domains shown)
VH: QVQLVESGGGVVQPGRSLRLSCVASGFTFSNYGMHWVRQAPGKGLEWVAVISYDGNNDLYSDSVKGRFTISRDNAKNALSLQMTSLRAEDTAVYYCARDSTMTPYYYHGIDVWGQGTTVTVSA
VL: DIQMTQSPSSLSASVGDRVTITCRASQDIRNDLGWYQQKPGKAPKRLIYAASSLQSGVPSRFSGSGSGTDFTLTISSLQPEDFATYYCLQHNSYPPTFGQGTKVEIK

Each binder was assayed against T1, full-length Fhm, human TL1A(Q167R), expressed on HEK293 cells (human, UniProt O95150 1-251) (assay: cell-based or functional assay).
T1 sequence: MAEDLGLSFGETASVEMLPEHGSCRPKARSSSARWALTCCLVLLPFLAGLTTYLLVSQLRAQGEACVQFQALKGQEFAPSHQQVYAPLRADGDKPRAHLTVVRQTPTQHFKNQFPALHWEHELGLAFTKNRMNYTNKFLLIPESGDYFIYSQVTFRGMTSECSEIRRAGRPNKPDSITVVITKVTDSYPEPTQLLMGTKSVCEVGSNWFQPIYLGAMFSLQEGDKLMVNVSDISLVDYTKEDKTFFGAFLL
With B1 the “IC50, reporter + 10,000 TL1A cells” value was 8.39 nM. B2 was tested, and the “IC50, reporter + 10,000 TL1A cells” value was 2.12 nM. For B3, the “IC50, reporter + 10,000 TL1A cells” value was 29.5 nM.

Molecular target: T2, full-length cynomolgus monkey TL1A expressed on HEK293 cells (cynomolgus monkey (Macaca fascicularis), UniProt O95150 1-251 (human entry))
T2 chain: T1 sequence with R34C, F69L, A71D, F110L, I149V, R167Q
Assay: cell-based or functional assay
B1 was tested, and the “IC50, reporter + 10,000 TL1A cells” value was 18.4 nM. With B2 the “IC50, reporter + 10,000 TL1A cells” value was 4.28 nM. In the case of B3, the “IC50, reporter + 10,000 TL1A cells” value is reported as 107 nM.

What follows are binders tested against T3, full length human TL1A expressed on HEK293 cells (human, UniProt O95150 1-251) (assay: cell-based or functional assay).
T3 sequence: T1 sequence with R167Q
In the case of B1, the “IC50, reporter + 10,000 TL1A cells” value is reported as 6.55 nM. B2 was tested, and the “IC50, reporter + 10,000 TL1A cells” value was 0.76 nM. In the case of B3, the “IC50, reporter + 10,000 TL1A cells” value is reported as 12.8 nM.

Molecular target: T4, Fhm, hTL1A(Q167R), soluble, CHO-expressed, residues 72-251 of SEQ ID NO:246 (human, UniProt O95150 72-251)
T4 construct: also called Fhm (CHO); FHM (CHO)
T4 chain: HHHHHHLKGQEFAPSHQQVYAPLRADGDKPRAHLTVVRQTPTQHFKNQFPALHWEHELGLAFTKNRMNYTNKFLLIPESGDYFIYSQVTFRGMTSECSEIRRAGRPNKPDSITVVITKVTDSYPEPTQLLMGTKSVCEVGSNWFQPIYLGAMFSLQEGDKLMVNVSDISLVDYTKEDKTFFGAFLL
Assay: ELISA, blocks FHM (150 pM) binding hDR3-Fc
Procedure: The ability of antibodies to block human TL1A binding to its cognate receptors, the DR3 and DcR3 receptors, was measured using a competition sandwich ELISA. In addition, blocking of a human TL1A variant FHM (human TL1A Q167R) and the cynomolgus monkey (Macaca fascicularis) TL1A (MfTL1A) protein binding to the human DR3 or DcR3 receptors was measured in the same manner. Constant amounts of biotinylated human TL1A or FHM (both expressed with a 6-His tag in CHO cells) or biotinylated MfTL1A (expressed in CHO cells) were separately titrated with varying amounts of antibodies. The antibody-protein complexes were incubated in solution (1 hr, 25° C.) and then transferred to microtiter plates coated with human DR3 (hDR3) or human DcR3 (hDcR3) expressed as human IgG1 Fc fusion proteins. After one hour at 25° C. the wells were washed, and bound human or monkey TL1A was detected with streptavidin conjugated with horseradish peroxidase (HRP). Wells were developed with a TMB solution to produce a colorimetric reaction and quenched with aqueous sulfuric acid before reading absorbance at 450 nm on a Perkin-Elmer Victor X5 plate reader. A sigmoidal dose-response curve was fit to the data using the Prism™ data analysis package. […] Both fully human anti-hTL1A mAbs and comparator antibodies, i.e., control mAb1 (an anti-hTL1A antibody with heavy and light chain variable domains having the amino acid sequences corresponding to SEQ ID NOS:21 and 27, respectively, of US 2009/0280116) and control mAb3 (an anti-hTL1A antibody with heavy and light chain variable domains having the amino acid sequences corresponding to SEQ ID NOS:57 and 48, respectively, of US 2009/0280116), were included in the study. NB: No binding under the conditions tested; NT: Not tested. Concentrations of biotinylated soluble ligands: (1) 150 pM; (2) 500 pM; (3) 10 pM; and (4) 50 pM.
Work on B1 yielded an IC50 of 0.214 nM. B2 was tested, and the IC50 was 0.044 nM. B3 was tested, and the IC50 was 0.589 nM.

Molecular target: T5, cynomolgus monkey TL1A, soluble, CHO-expressed, residues 72-251 of SEQ ID NO:248 with N-terminal His6-tag (cynomolgus monkey (Macaca fascicularis), UniProt O95150 72-251 (human entry))
T5 chain: T4 chain with F45L, I84V, R102Q
Assay: cell-based or functional assay
With B1 the “IC50, NFkB-luciferase reporter” value was 0.26 nM. With B2 the “IC50, NFkB-luciferase reporter” value was 0.05 nM. In the case of B3, the “IC50, NFkB-luciferase reporter” value is reported as 155 nM.

The binders below were run against T6, human TL1A, soluble, E. coli-expressed, residues 72-251 of SEQ ID NO:244 (human, UniProt O95150 72-251) (assay: cell-based or functional assay).
T6 sequence: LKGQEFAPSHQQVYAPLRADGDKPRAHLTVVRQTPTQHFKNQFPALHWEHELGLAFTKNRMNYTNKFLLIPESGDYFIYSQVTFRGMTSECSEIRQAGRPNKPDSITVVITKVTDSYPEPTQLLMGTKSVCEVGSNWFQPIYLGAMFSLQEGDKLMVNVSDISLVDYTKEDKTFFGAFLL
In the case of B1, the “IC50, NFkB-luciferase reporter” value is reported as 0.19 nM. In the case of B2, the “IC50, NFkB-luciferase reporter” value is reported as 0.06 nM. With B3 the “IC50, NFkB-luciferase reporter” value was 2.17 nM.

Source: patent US20140120109A1 (Regeneron, published 2014)
